The record followed here is paper PMC8247599.

Data set [1] has as its system aTm1 252-334 (Drosophila melanogaster). In words: EMSA. (In general: Mobility shift assays separate free from complexed probe on a gel.)
Data set [2] concerns the target aTm1^252–334 (Drosophila melanogaster). In words: ITC. A general note: In ITC the heat of successive injections is recorded.
The target of data set [3] is GST-tagged Khc^848–941 (Drosophila) (UniProt P17210). In words: SPR. A general note: In SPR one partner is held on a chip, and binding of the other changes the refractive index at the surface.
Sequence of GST-tagged Khc^848–941 (Drosophila) (P17210 848-941): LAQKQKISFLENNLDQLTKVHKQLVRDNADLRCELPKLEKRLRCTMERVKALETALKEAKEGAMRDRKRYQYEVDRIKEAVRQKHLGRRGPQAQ

Where only a bound is given, the exact number is not on record here.

With “UUUUUUUUUUUUUUUUUUUUUUUUU [oligo-(U25) RNA]”, in data set [1], the dissociation constant Kd (in general, a measure of binding affinity in units of concentration) was above 10 µM.

For the substance aTm1^252–334 (domain or fragment), the values for the Kd in data set [2] and in data set [3] were 10 µM and 0.141 µM, respectively.
